From patent publication US20110130449A1 (ISIS INNOVATION, published 2011)

Columns and labels:
[1] = molecular target: TAP-tagged Jmjd6 fusion protein (human); test: tandem affinity purification of TAP-tagged Jmjd6 from HEK293T cells, MS identification
[2] = molecular target: Jmjd6 active site mutant ASM1 (GFP fusion) (human, UniProt Q5R6G2 1-403); test: GFP nanotrap pulldown, Western blot
[3] = molecular target: Jmjd6 with an N-terminal deletion of seven amino acids (GFP fusion) (human, UniProt Q5R6G2 8-403); test: GFP nanotrap pulldown, Western blot

| Binder | binding result [1] | binding result [2] | binding result [3] |
| --- | --- | --- | --- |
| cisplatin resistance-associated overexpressed protein (CROP) (other, also called CROP protein) MISAAQLLDELMGRDRNLAPDEKRSNVRWDHESVCKYYLCGFCPAELFTNTRSDLGPCEKIHDENLRKQYEKSSRFMKVGYERDFLRYLQSLLAEVERRIRRGHARLALSQNQQSSGAAGPTGKNEEKIQVLTDKIDVLLQQIEELGSEGKVEEAQGMMKLVEQLKEERELLRSTTSTIESFAAQEKQMEVCEVCGAFLIVGDAQSRVDDHLMGKQHMGYAKIKATVEELKEKLRKRTEEPDRDERLKKEKQEREEREKEREREREERERKRRREEEEREKERARDRERRKRSRSRSRHSSRTSDRRCSRSRDHKRSRSRERRRSRSRDRRRSRSHDRSERKHRSRSRDRRRSKSRDRKSYKHRSKSRDREQDRKSKEKEKRGSDDKKSSVKSGSREKQSEDTNTESKESDTKNEVNGTSEDIKSEGDTQSN | binds | – | – |
| Splicing factor U2AF 65 kD subunit (other, also called U2 snRNP auxiliary factor 65 KDa subunit) SDFDEFERQLNENKQERDKENRHRKRSHSRSRSRDRKRRSRSRDRRNRDQRSASRDRRRRSKPLTRGAKEEHGGLIRSPRHEKKKKVRKYWDVPPPGFEHITPMQYKAMQAAGQIPATALLPTMTPDGLAVTPTPVPVVGSQMTRQARRLYVGNIPFGITEEAMMDFFNAQMRLGGLTQAPGNPVLAVQINQDKNFAFLEFRSVDETTQAMAFDGIIFQGQSLKIRRPHDYQPLPGMSENPSVYVPGVVSTVVPDSAHKLFIGGLPNYLNDDQVKELLTSFGPLKAFNLVKDSATGLSKGYAFCEYVDINVTDQAIAGLNGMQLGDKKLLVQRASVGAKNATLVSPPSTINQTPVTLQVPGLMSSQVQMGGHPTEVLCLMNMVLPEELLDDEEYEEIVEDVRDECSKYGLVKSIEIPRPVDGVEVPGCGKIFVEFTSVFDCQKAMQGLTGRKFANRVVVTKYCDPDSYHRRDFW | binds | no binding | no binding |
